The target in the experiment is human Type 1 IGF receptor (human) (UniProt P08069). Briefly: competitive displacement of 125I-Tyr31-IGF-I; FLAG-tagged IGF-1R captured on anti-FLAG plate.
Sequence of human Type 1 IGF receptor (human) (P08069 31-1367 limits assumed): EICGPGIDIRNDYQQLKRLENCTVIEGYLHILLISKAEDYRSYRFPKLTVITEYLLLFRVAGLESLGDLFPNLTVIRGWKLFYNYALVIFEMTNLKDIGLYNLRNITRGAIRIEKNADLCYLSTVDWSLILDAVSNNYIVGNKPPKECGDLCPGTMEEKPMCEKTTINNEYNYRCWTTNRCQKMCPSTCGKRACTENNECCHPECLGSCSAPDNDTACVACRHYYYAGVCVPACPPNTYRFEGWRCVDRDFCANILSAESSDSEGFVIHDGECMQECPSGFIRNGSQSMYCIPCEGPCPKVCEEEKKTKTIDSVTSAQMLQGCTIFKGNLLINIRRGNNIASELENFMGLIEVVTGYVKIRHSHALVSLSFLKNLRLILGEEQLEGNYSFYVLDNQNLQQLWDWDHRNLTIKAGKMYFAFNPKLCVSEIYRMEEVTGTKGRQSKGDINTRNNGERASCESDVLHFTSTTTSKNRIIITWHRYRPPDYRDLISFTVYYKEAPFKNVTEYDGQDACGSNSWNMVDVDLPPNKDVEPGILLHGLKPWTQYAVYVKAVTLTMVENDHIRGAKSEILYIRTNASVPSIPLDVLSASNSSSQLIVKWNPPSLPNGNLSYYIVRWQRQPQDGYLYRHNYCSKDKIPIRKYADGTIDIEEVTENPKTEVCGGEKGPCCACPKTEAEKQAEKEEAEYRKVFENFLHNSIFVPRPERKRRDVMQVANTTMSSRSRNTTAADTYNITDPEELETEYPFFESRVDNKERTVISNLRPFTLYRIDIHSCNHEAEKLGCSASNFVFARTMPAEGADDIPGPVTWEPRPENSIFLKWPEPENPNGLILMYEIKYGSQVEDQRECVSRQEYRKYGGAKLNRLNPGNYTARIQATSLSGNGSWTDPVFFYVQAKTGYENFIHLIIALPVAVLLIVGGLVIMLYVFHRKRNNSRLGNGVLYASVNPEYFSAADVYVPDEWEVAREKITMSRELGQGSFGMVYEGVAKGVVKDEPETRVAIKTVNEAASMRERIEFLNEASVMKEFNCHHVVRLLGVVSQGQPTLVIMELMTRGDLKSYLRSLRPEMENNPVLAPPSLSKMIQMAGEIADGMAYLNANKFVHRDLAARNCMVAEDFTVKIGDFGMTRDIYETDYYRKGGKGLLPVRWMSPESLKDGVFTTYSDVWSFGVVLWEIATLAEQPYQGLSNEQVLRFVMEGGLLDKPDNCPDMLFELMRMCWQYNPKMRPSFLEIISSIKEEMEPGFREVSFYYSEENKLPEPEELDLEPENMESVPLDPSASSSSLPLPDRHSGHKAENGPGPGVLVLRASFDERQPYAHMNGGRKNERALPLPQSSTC

As to “lispro-insulin (ligand; other documents disagree on this pair)”, the relative affinity (percent (of IGF-I for IGF-1R)) came to 0.27.

For the origin of these results see US20130085101A1.
